Source: US20260274993A1

Columns and labels:
[1] = biological target: VH4-34 endogenously expressed by cell line GA-10; experiment: flow cytometry, EC50 of % parent (APC), GA-10 cells endogenously expressing VH4-34; curve in FIG. 5A rises to about 66 % at Log M about -7.2 without a plateau
[2] = biological target: VH4-34 endogenously expressed by cell line HBL-1; experiment: flow cytometry, EC50 of % parent (APC), HBL-1 cells endogenously expressing VH4-34; curve in FIG. 5A rises to about 57 % at Log M about -7.2 without a plateau

EC50 [1]: 1.52 nM
EC50 [2]: 240 nM
B1: D011-1E11-5T2.IgG2a (antibody, V domains shown)
VH: QVQLVQSGAEVKKPGASMKVSCKASGYSFTGSTMNWVRQAPGQGLEWMGWINPYNGGTNYAQKFQGRVTMTRDTSISTAYMELSRLRSDDTAVYYCASRGKNGYDGRDFDCWGQGTLVTVSS
VL: EIVLTQSPATLSLSPGERATLSCKSTKSLLNSGGFSYLDWYQQKPGQAPRLLIYLVSNRFTGIPARFSGSGSGTDFTLTISSLEPEDFAVYYCFQSNYFPFTFGQGTKLEIKR
